From patent publication US20260250410A1, “ANTIBODY AND USE THEREOF” (SICHUAN HUIYU PHARMACEUTICAL CO., LTD., priority 2022, published 2026)

T1: HuCDCP1-C (Homo sapiens, UniProt Q9H5V8)
T1 construct: made in house; host or cells: HEK-293T
T1 sequence (Q9H5V8 30-667): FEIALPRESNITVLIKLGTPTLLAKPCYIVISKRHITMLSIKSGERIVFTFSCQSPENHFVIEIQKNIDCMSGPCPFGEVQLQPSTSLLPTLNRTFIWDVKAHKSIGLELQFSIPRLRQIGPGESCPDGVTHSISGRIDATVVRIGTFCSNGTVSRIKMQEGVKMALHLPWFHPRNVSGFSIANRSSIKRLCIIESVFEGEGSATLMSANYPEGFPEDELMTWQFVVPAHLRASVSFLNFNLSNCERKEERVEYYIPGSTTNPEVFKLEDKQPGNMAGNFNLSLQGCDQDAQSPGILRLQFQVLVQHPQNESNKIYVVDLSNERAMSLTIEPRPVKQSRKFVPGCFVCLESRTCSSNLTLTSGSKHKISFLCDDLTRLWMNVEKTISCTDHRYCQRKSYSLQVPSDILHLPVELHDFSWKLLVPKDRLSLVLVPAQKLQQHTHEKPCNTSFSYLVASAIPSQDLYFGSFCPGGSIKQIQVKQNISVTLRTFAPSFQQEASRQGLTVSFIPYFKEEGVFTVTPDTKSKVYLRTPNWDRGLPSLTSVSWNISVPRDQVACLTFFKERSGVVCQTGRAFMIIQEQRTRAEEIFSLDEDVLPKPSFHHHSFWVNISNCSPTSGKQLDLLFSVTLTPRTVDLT

B1: 1CP-117: humanized anti-CDCP1 antibody produced by 8E5; VH SEQ ID NO: 348, VL SEQ ID NO: 358 (antibody, V domains shown)
VH: QVQLVQSGSELKKPGASVKVSCKASGYTLTDFSMHWVRQAPGQGLEWMGWINTETGAPTYADDFKGRFVLSLDTSVSTAYLQISSLKAEDTAVYYCSRGRDYDPHFDYWGQGTLVTVSS
VL: EIVLTQSPATLSLSPGERATLSCRASQSISDFLHWYQQKPGQSPRLLIKYASQSISGIPARFSGSGSGSDFTLTISSVEPEDFAVYYCQSAHSFPYTFGQGTKLEIK
modifications: humanized antibody 8E5 heavy chain variable region 01; humanized antibody 8E5 light chain variable region 02
B2: 1CP-121: humanized anti-CDCP1 antibody produced by 8E5; VH SEQ ID NO: 348, VL SEQ ID NO: 359 (antibody, V domains shown)
VH: QVQLVQSGSELKKPGASVKVSCKASGYTLTDFSMHWVRQAPGQGLEWMGWINTETGAPTYADDFKGRFVLSLDTSVSTAYLQISSLKAEDTAVYYCSRGRDYDPHFDYWGQGTLVTVSS
VL: EIVLTQSPATLSLSPGERATLSCRASQSISDFLHWYQQKSGQSPRLLIKYASQSISGIPARFSGSGSGSDFTLTISSVEPEDFAVYYCQSAHSFPYTFGQGTKLEIK
modifications: humanized antibody 8E5 heavy chain variable region 01; humanized antibody 8E5 light chain variable region 03
B3: 1CP-124: humanized anti-CDCP1 antibody produced by 3C11; VH SEQ ID NO: 339, VL SEQ ID NO: 351 (antibody, V domains shown)
VH: QVQLVQSGAEVKKPGASVKVSCKASGYNFISYWLHWVRQAPGQGLEWMGGIYPGNTDTTYNQKFKGRVTMTRDTSTSTVYMELSSLRSEDTAVYYCIRYDYDRGMDYWGQGTLVTVSS
VL: DIQMTQSPSSLSASVGDRVTITCRASEDIYYRLAWYQQKPGKAPKLLISGATALETGVPSRFSGSGSGKDYTFTISSLQPEDIATYYCQHYWNIPWTFGQGTKVEIK
modifications: humanized antibody 3C11 heavy chain variable region 01; humanized antibody 3C11 light chain variable region 01
B4: 1CP-125: humanized anti-CDCP1 antibody produced by 3C11; VH SEQ ID NO: 340, VL SEQ ID NO: 351 (antibody, V domains shown)
VH: QVQLVQSGAEVKKPGASVKVSCKASGYNFISYWLHWVRQAPGQGLEWMGGIYPGNTDTTYNQKFKGRVTMTADTSTSTVYMELSSLRSEDTAVYYCIRYDYDRGMDYWGQGTLVTVSS
VL: DIQMTQSPSSLSASVGDRVTITCRASEDIYYRLAWYQQKPGKAPKLLISGATALETGVPSRFSGSGSGKDYTFTISSLQPEDIATYYCQHYWNIPWTFGQGTKVEIK
modifications: humanized antibody 3C11 heavy chain variable region 02; humanized antibody 3C11 light chain variable region 01
B5: 1CP-128: humanized anti-CDCP1 antibody produced by 3C11; VH SEQ ID NO: 339, VL SEQ ID NO: 352 (antibody, V domains shown)
VH: QVQLVQSGAEVKKPGASVKVSCKASGYNFISYWLHWVRQAPGQGLEWMGGIYPGNTDTTYNQKFKGRVTMTRDTSTSTVYMELSSLRSEDTAVYYCIRYDYDRGMDYWGQGTLVTVSS
VL: DIQMTQSPSSLSASVGDRVTITCRASEDIYYRLAWYQQKPGKAPKLLISGATALETGVPSRFSGSGSGKDYTLTISSLQPEDIATYYCQHYWNIPWTFGQGTKVEIK
modifications: humanized antibody 3C11 heavy chain variable region 01; humanized antibody 3C11 light chain variable region 02
B6: 1CP-129: humanized anti-CDCP1 antibody produced by 3C11; VH SEQ ID NO: 340, VL SEQ ID NO: 352 (antibody, V domains shown)
VH: QVQLVQSGAEVKKPGASVKVSCKASGYNFISYWLHWVRQAPGQGLEWMGGIYPGNTDTTYNQKFKGRVTMTADTSTSTVYMELSSLRSEDTAVYYCIRYDYDRGMDYWGQGTLVTVSS
VL: DIQMTQSPSSLSASVGDRVTITCRASEDIYYRLAWYQQKPGKAPKLLISGATALETGVPSRFSGSGSGKDYTLTISSLQPEDIATYYCQHYWNIPWTFGQGTKVEIK
modifications: humanized antibody 3C11 heavy chain variable region 02; humanized antibody 3C11 light chain variable region 02
B7: 1CP-152: humanized anti-CDCP1 antibody produced by 8C9; VH SEQ ID NO: 344, VL SEQ ID NO: 354 (antibody, V domains shown)
VH: EVQLVESGGGLVQPGRSLRLSCTTSGLTFTHYHMSWVRQAPGKGLEWVAIIRNKAYGYTTDYSASVRGRFTISRDDSKSILYLQMNSLKTEDTAVYYCVREGGYGYDGTFAYWGQGTLVTVSS
VL: DIQMTQSPSSLSASVGDRVTITCRASESVDNYGISFMNWFQQKPGQAPKLLIYAASNQGSGVPSRFSGSGSGTDFTLTISSMQPEDFATYYCQQSKEVPRTFGGGTKVEIK
modifications: humanized antibody 8C9 heavy chain variable region 02; humanized antibody 8C9 light chain variable region 01
B8: 1CP-157: humanized anti-CDCP1 antibody produced by 8C9; VH SEQ ID NO: 345, VL SEQ ID NO: 355 (antibody, V domains shown)
VH: EVQLVESGGGLVQPGRSLRLSCTTSGLTFTHYHMSWVRQAPGKGPEWVAIIRNKAYGYTTDYSASVRGRFTISRDDSKSILYLQMNSLKTEDTAVYYCVREGGYGYDGTFAYWGQGTLVTVSS
VL: DIQMTQSPSSLSASVGDRVTITCRASESVDNYGISFMNWFQQKPGQPPKLLIYAASNQGSGVPSRFSGSGSGTDFTLTISSMQPEDFATYYCQQSKEVPRTFGGGTKVEIK
modifications: humanized antibody 8C9 heavy chain variable region 03; humanized antibody 8C9 light chain variable region 02

Assays:
HuCDCP1-C = target: T1, HuCDCP1-C; test: Caterra affinity of humanized anti-CDCP1 antibodies; format: binding; details: HuCDCP1-C 2 μg/ml immobilized
Protocol: The humanized anti-CDCP1 antibodies obtained from Example 11 were subjected to gene cloning, constructed into pTT5 expression vector for a small amount of expression in CHO cells (Expi-CHOS: Gibco A29127), and purified with an Fc affinity column (AT Protein A Diamond Plus. No. AA402312). Antibody purity was analyzed by HPLC and determined by Nanodrop. High-throughput affinity assay was carried out for a small amount of antibodies by Caterra.

MDA-MB-231 cells = test: Endocytosis capacity of humanized antibodies; format: cell-based, human; details: antibody 1.5 μg/mL; for 1 h endocytosis (%): MDA-MB-231, 1 h at 37° C.; for 2 h endocytosis (%): MDA-MB-231, 2 h at 37° C.
Protocol: The endocytosis capacity of the anti-CDCP1 humanized antibody was detected with reference to example 5. MDA-MB-231 cells were subjected to digestion with 5 mM EDTA, and plated at 3×10^4 cells/well after cell counting. After adding an Fc blocker and blocking at room temperature for 10 mins, a test antibody (1.5 μg/mL) was added, and the mixture was incubated at 4° C. for 30 mins, centrifuged, and washed twice with PBS+2% FBS, then the cells were divided into three equal portions (labeled as 0 h, 1 h, 2 h), cells labeled as 1 h and 2 h time points were added to 200 μL of cell culture medium, and cultured at 37° C. for 1 h and 2 h, respectively. Cells at 0 h point were centrifuged, a secondary antibody (PE anti-human IgG Fc Antibody, Biolegend, 410708) was added, and the mixture was incubated at 4° C. for 30 mins, centrifuged, and washed twice with PBS+2% FBS, and detection was performed using a flow cytometer. After incubation of cells labeled as 1 h and 2 h points at 37° C. was completed, a secondary antibody was added (in the same steps as those at 0 h point), Geo-MFI of the signal under the same voltage was collected as detection signal at 0 h, and antibody internalization rate was calculated according to the following equation: Internalization (%)=(Geo-MFI (0 h)-Geo-MFI (1, 2 h))/Geo-MFI (0 h)×100%.

Molecule	ka (HuCDCP1-C)	kd (HuCDCP1-C)	1 h endocytosis (%) (MDA-MB-231 cells)	2 h endocytosis (%) (MDA-MB-231 cells)
B1	152000 M⁻¹ s⁻¹	3.93e-05 s⁻¹	45.68%	68.37%
B2	148000 M⁻¹ s⁻¹	1e-05 s⁻¹	51.49%	72.98%
B3	148000 M⁻¹ s⁻¹	1.47e-05 s⁻¹	38.17%	56.39%
B4	151000 M⁻¹ s⁻¹	2.17e-05 s⁻¹	79.56%	88.62%
B5	139000 M⁻¹ s⁻¹	1e-05 s⁻¹	36.87%	55.68%
B6	160000 M⁻¹ s⁻¹	1e-05 s⁻¹	36.18%	54.25%
B7	114000 M⁻¹ s⁻¹	0.000465 s⁻¹	54.39%	69.96%
B8	122000 M⁻¹ s⁻¹	0.000385 s⁻¹	56.06%	70.74%
